Reference: article PMC3843118, “ABC transporter functions as a pacemaker for sequestration of plant glucosides in leaf beetles” (eLife, 2013)

Substrate: OCc1ccccc1O[C@@H]1O[C@H](CO)[C@@H](O)[C@H](O)[C@H]1O
Test: efflux of injected substrate from oocytes, HPLC-MS
Assay type: cell-based, Chrysomela populi
Details: Xenopus oocytes expressing CpMRP vs water-injected control, modified Barth's medium pH 7.4, room temperature, oocyte volume assumed 1 µl

B1: CpMRP (Chrysomela populi) (protein)
chain: MDNGYQLKYDNPRDKANFISKLFFGWMIGLVRKATRTGLEVGDLYKTREADKSKKLADLLEKNWTKELKRAKLKGTKPSLSRALLKTFTMEYMGWGLLFFIQFVVLRSILPLILSYLISLFQESDMDDMVDRTNAMYICSGILITITAISIFFLHHTNKGLTVVGMKARIAVSSLIYRKITRLNQTSLGETAAGQVVNILSNDVNRFDLVVLSLHCLWTLPIQVALLFYLLWRQVQISCLAGILSMMIICIPGQGYVGKLTGVLRFRVAKKTDTRVKLMNEVISGIQVIKMYAWEKSFEKLIKLMRADEIKDLTSTSYLRGLLLSCVVFIERLTMFLTVTCYVLLGNVITADKVFSMAQFFNILQYGIAILYPMAVSYGAETLISIKRLQDFLLLEERKTPSIETAEDNGIQLSDVSASWTADTRTLRDITLNLPPGTLCAVVGPVGAGKSSLLQLLLGELPLSSGTMSLAGTISYSSQEPWLFQSSVRKNVLFGEPYQSSWYKQVVKVCALEKDFDQFPQRDQTIVGERGVSLSGGQRARINLARAIYRKTDVYLMDDPLSAVDTHVGRHLFDECIYRHLRGKTRILATHQLQYLKNADVIVVMNEGRIEAQGSFEELSDSELDFTKLLVSADETKGESKKLSLVEEPKIDYIKRLSVRSIMSTQSEFIEMMEYGDTEELGVDGNAHPFKDYCKAPRNVCLLVVVIISLILAQAVCSGADYWSSFWTRQEEIRHSTRARPVSDSSEVIQLVPLGNQTISLDGNKYTNENRDFSFDTFFDQVFLDNRIYKLLKTNYSMGVYGFLIIAAIVFTIGRSVLFCKLTMQASTNLHSDMFHTLLKAPMRFFDTNPSGRVLNRFSKDMGAVDEILPRTLLESIQIMLVMCGILVNIAVANPYMLVAMVVMGVCFYFLSKWYVTTASNVKHLEGFTKSPVFSHVNSTLNGITTIRAFRAEEVLCEEFDDQQDVHTSSWYLTLSCIASFGLWMDIVCLLFLACVTFSFVLMHSTSSVNGSLVGLAISQCLILTGMLQHGMRQTSEVINQLTSVERIRQYTKIDTEGPFETPIEKKPLKGWPNRGRLEFRNLVLRYVAEDDPVLRNLTFTVLPGEKVGIVGRTGAGKSSLISALFRLAPTSGSILIDGVDSKVLGLTDLRMKISIIPQEPVLFSATMRYNLDPFDEFDDRSLWDALEQVELKDAVESLDIMVTEGGNNFSLGQRQLICLARAILRNNNILVLDEATANVDQRTDSFIQKTIRRNFEDCTVLTIAHRLNTIMDSDKVLVMHFGEMVEYDHPHILLQLPEGHFHKMVLETGPAIYAQLKDVAEKAYHKNSRL
notes: cRNA expressed in Xenopus laevis oocytes
With B1 as the protein, how does the Km read?
The Km was 5.8 mM.
